Assay results as given in publication PMC2770678 (Nucleic Acids Research, 2009).

Target: T1, P. furiosus AP endonuclease (PfuAPE), PF0258 gene product, His-tagged recombinant (Pyrococcus furiosus, UniProt Q8U437 1-281)
T1 sequence (looked up): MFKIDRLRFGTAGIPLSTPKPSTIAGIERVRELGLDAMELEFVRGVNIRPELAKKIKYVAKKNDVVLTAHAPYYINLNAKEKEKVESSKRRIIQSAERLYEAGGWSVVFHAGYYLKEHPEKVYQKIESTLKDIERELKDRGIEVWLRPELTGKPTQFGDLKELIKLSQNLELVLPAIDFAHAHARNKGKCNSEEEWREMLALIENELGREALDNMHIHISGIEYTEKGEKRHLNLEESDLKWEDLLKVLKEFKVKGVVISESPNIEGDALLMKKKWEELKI
Experiment: SPR

Kd: 1000 nM
B1: P. furiosus proliferating cell nuclear antigen (PfuPCNA), recombinant wild type (natural protein, Pyrococcus furiosus, UniProt O73947 1-249, looked up)
chain: MPFEIVFEGAKEFAQLIDTASKLIDEAAFKVTEDGISMRAMDPSRVVLIDLNLPSSIFSKYEVVEPETIGVNMDHLKKILKRGKAKDTLILKKGEENFLEITIQGTATRTFRVPLIDVEEMEVDLPELPFTAKVVVLGEVLKDAVKDASLVSDSIKFIARENEFIMKAEGETQEVEIKLTLEDEGLLDIEVQEETKSAYGVSYLSDMVKGLGKADEVTIKFGNEMPMQMEYYIRDEGRLTFLLAPRVEE
